These results are taken from US20180362994, “TRANSCRIPTION FACTORS THAT REGULATE NICOTINE BIOSYNTHESIS IN TOBACCO” (NORTH CAROLINA STATE UNIVERSITY, published 2018).

This series deals with NtMYC2aΔN (C-terminal bHLH domain) (Nicotiana tabacum). Description: EMSA; 10 mM Tris, 50 mM KCl, 1 mM DTT, poly(dI-dC), room temperature; 500x cold probe reduced the signal. The note with it: tags: GST fusion, cleaved with thrombin; label: 3' biotin. The method, then: EMSA was performed according to manual of the kit (LightShift,) Chemiluminescent EMSA Kit, Pierce). The binding buffer was 10 mM Tris, 50 mM KCl, 1 mM DTT, 0.05 μg/μl poly(di-dc), 0.05% NP-40, and 2.5% (v/v) glycerol. The probe was 20 fmol for each reaction. The cold probe and mutated probe were 10 pmol (500×) and the protein was 0.75 μg MYC2aΔN. The binding reaction was performed at room temperature for 20 min. The reaction mixture was separated on a 5% polyacrylamide gel and blotted on Hybond™-N⁺ membrane (Amersham, Piscataway, N.J., USA). UV crosslinker was used to crosslink the DNA to membrane. The membrane was probed and signal was detected according to the manual of kit (Chemiluminescent Nucleic Acid Detection Module Kit, Pierce). Kodak BioMax MS film (Carestream Health, Inc. Rochester, N.Y.) was exposed to record the signal.
Three G-boxes (G2, G3 and G4) were identified in the 0.6 kb NtQPT2 promoter (NCBI accession No. AJ748263), among which G2 box has the highest binding strength with NtMYC2b (Shoji and Hashimoto, 2011). To validate that NtMYC2a binds to G2-box. EMSA experiment was performed with probes of 38 bp consisting of a G2 box (CACGTT) and flanking regions from the NtQPT2 promoter and mutated probe with mutation in the G2 box sequence. We cloned the full length of NtMYC2a and expressed the recombinant protein (NtMYC2a fused with GST) in E. coli. […]

Sequence of NtMYC2aΔN (C-terminal bHLH domain) (Nicotiana tabacum) (chain, as listed by the source mutant): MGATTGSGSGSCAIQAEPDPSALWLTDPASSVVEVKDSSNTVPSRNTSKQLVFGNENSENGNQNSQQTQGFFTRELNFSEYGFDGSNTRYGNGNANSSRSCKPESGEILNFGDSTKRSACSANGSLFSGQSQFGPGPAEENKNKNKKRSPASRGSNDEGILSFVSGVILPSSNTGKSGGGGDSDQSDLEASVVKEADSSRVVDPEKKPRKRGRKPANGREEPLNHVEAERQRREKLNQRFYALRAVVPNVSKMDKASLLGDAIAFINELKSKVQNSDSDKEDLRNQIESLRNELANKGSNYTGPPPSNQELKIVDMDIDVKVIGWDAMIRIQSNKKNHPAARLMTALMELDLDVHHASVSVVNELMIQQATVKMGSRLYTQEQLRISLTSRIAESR

B1: G2-box probe of NtQPT2 promoter (dsDNA)
DNA 1: AGTAGCTGAACACGTTTTATTTATGGTTGTTGAATAGT
DNA 2: ACTATTCAACAACCATAAATAAAACGTGTTCAGCTACT
For the molecule B1, the binding result is “binds”.
